Experimental data as given in patent publication US20240270821A1, “GIP/GLP1/GCG TRI-RECEPTOR AGONISTS AND USES THEREOF” (priority 2023, published 2024).
Numbering of substitutions follows the chain as printed.

B1: Example 233 (peptide)
chain: YXQGTFTSDFSQXLDKKAQXAFIEYLIEXGESSGAPPPSGE
modifications: non-natural residues; AEEA-γGlu-C18 diacid on Lys; C-terminal amide; synthetic construct; SITE 2: note = 2-Aminoisobutyric Acid; SITE 13: note = alpha-methyl-leucine; SITE 17: note = Lysine is chemically modified through conjugation of the epsilon-amino group of the Lysine side chain with (2-[2-(2-Amino-ethoxy)-ethoxy]-acetyl)-(gamma-Glu)-CO-(CH2) 16-CO2H; SITE 20: n
B2: Example 242 (peptide)
chain: B1 chain with Q12X, I27L, E31X, E41S
modifications: Aib, Orn, αMeL, 4Pal; AEEA-γGlu-C18 diacid on Lys; amide; synthetic construct; SITE 2: note = 2-Aminoisobutyric Acid; SITE 12: note = L-ornithine; SITE 13: note = alpha-methyl-leucine; SITE 17: note = Lysine is chemically modified through conjugation of the epsilon-amino group of the Lysine side chain with (2-[2-(2-Amino-ethoxy)-ethoxy]-acetyl)-(gamma-Glu)
B3: Example 282 (peptide)
chain: B1 chain with F10X, Q12K, A35E, E41S
modifications: synthetic construct; SITE 2: note = 2-Aminoisobutyric Acid; SITE 10: note = 3-(4-Pyridyl)-L-alanine; SITE 13: note = alpha-methyl-leucine; SITE 17: note = Lysine is chemically modified through conjugation of the epsilon-amino group of the Lysine side chain with (2-[2-(2-Amino-ethoxy)-ethoxy]-acetyl)
B4: Example 285 (peptide)
chain: B1 chain with F10X, Q12K, E28A, E41S
modifications: synthetic construct; SITE 2: note = 2-Aminoisobutyric Acid; SITE 10: note = 3-(4-Pyridyl)-L-alanine; SITE 13: note = alpha-methyl-leucine; SITE 17: note = Lysine is chemically modified through conjugation of the epsilon-amino group of the Lysine side chain with (2-[2-(2-Amino-ethoxy)-ethoxy]-acetyl)
B5: Example 238 (peptide)
chain: B1 chain with Q12X, I27L, E31P, G34X, E41S
modifications: Aib, Orn, αMeL, lipidated Lys, C-terminal amide; synthetic construct; SITE 2: note = 2-Aminoisobutyric Acid; SITE 12: note = L-ornithine; SITE 13: note = alpha-methyl-leucine; SITE 17: note = Lysine is chemically modified through conjugation of the epsilon-amino group of the Lysine side chain with (2-[2-(2-Amino-ethoxy)-ethoxy]-acetyl)-(gamma-Glu)
B6: Example 241 (peptide)
chain: B1 chain with Q12X, I27L, E31H, E41S
modifications: non-natural residues; C18 diacid-γGlu-AEEA on Lys; C-terminal amide; synthetic construct; SITE 2: note = 2-Aminoisobutyric Acid; SITE 12: note = L-ornithine; SITE 13: note = alpha-methyl-leucine; SITE 17: note = Lysine is chemically modified through conjugation of the epsilon-amino group of the Lysine side chain with (2-[2-(2-Amino-ethoxy)-ethoxy]-acetyl)-(gamma-Glu)
B7: Example 280 (peptide)
chain: B1 chain with F10X, Q12K, E41S
modifications: synthetic construct; SITE 2: note = 2-Aminoisobutyric Acid; SITE 10: note = 3-(4-Pyridyl)-L-alanine; SITE 13: note = alpha-methyl-leucine; SITE 17: note = Lysine is chemically modified through conjugation of the epsilon-amino group of the Lysine side chain with (2-[2-(2-Amino-ethoxy)-ethoxy]-acetyl)
B8: Example 883 (peptide)
chain: B1 chain with F10X, E28A, X29G, E31P
modifications: synthetic construct; SITE 2: note = 2-Aminoisobutyric Acid; SITE 10: note = 3-(4-Pyridyl)-L-alanine; SITE 13: note = alpha-methyl-leucine; SITE 17: note = Lysine is chemically modified through conjugation of the epsilon-amino group of the Lysine side chain with (gamma-Glu)2-CO-(CH2)16-CO2H; SITE 20:
B9: Example 248 (peptide)
chain: B1 chain with Q12X, I27L, E31X
modifications: Aib, Orn, αMeL, 4Pal; lysine acylated C18 diacid; C-terminal amide; synthetic construct; SITE 2: note = 2-Aminoisobutyric Acid; SITE 12: note = L-ornithine; SITE 13: note = alpha-methyl-leucine; SITE 17: note = Lysine is chemically modified through conjugation of the epsilon-amino group of the Lysine side chain with (2-[2-(2-Amino-ethoxy)-ethoxy]-acetyl)-(gamma-Glu)
B10: Example 29 (peptide)
chain: YXQGTFTSDFSXXLDKKAQXAFIEYLLAGGPSSGEPPPSEG
modifications: Aib, Orn, alpha-methyl-Leu, acylated Lys, C-terminal amide; synthetic construct; SITE 2: note = 2-Aminoisobutyric Acid; SITE 12: note = L-ornithine; SITE 13: note = alpha-methyl-leucine; SITE 17: note = Lysine is chemically modified through conjugation of the epsilon-amino group of the Lysine side chain with (2-[2-(2-Amino-ethoxy)-ethoxy]-acetyl)-(gamma-Glu)
B11: Example 253 (peptide)
chain: B10 chain with A28E, G29A, E35H, E40G, G41S
modifications: synthetic construct; SITE 2: note = 2-Aminoisobutyric Acid; SITE 12: note = L-ornithine; SITE 13: note = alpha-methyl-leucine; SITE 17: note = Lysine is chemically modified through conjugation of the epsilon-amino group of the Lysine side chain with (2-[2-(2-Amino-ethoxy)-ethoxy]-acetyl)2-(gamma-Glu)
B12: Example 256 (peptide)
chain: B10 chain with A28E, G29A, E35H, E40G, G41X
modifications: synthetic construct; SITE 2: note = 2-Aminoisobutyric Acid; SITE 12: note = L-ornithine; SITE 13: note = alpha-methyl-leucine; SITE 17: note = Lysine is chemically modified through conjugation of the epsilon-amino group of the Lysine side chain with (2-[2-(2-Amino-ethoxy)-ethoxy]-acetyl)2-(gamma-Glu)

Each binder was assayed against hGLP-1R (Homo sapiens, UniProt P43220) (assay: cell-based or functional assay).
Chain of hGLP-1R (P43220 24-463): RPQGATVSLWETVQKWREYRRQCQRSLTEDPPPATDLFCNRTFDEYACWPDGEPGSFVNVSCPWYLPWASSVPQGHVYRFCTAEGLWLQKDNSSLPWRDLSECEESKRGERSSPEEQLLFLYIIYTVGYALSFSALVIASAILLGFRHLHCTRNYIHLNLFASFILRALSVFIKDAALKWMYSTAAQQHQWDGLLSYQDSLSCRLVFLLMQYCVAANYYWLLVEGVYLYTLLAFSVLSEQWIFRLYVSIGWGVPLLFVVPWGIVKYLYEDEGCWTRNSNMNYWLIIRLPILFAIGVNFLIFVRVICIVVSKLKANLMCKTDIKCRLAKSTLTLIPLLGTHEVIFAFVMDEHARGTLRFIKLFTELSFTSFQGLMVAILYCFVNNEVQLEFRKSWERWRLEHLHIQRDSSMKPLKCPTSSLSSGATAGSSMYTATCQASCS

Going from B1 to B2, the Relative cAMP EC50 rises from 0.874 nM to 3.42 nM (3.9-fold).

First: B3
Second: B4
The Relative cAMP EC50 of the first is 2.6-fold lower: 1.09 nM for the first, 2.87 nM for the second.

B5 and B6 are within 1.5-fold of each other in Relative cAMP EC50: 2.71 nM for the first, 2.3 nM for the second.

B7 and B8 are within 1.5-fold of each other in Relative cAMP EC50: 0.95 nM for the first, 1.05 nM for the second.

Compared with B10, B11 is 1.6-fold lower in Relative cAMP EC50: 3.56 nM for the first, 2.2 nM for the second.

B12 showed a Relative cAMP EC50 of 2.87 nM.

B1 and B2 are within 1.5-fold of each other in cAMP Rel EC50, nM (1% HSA): 223 nM for the first, 242 nM for the second.

B5 gave a cAMP Rel EC50, nM (1% HSA) of 262 nM.

Compared with B3, B4 is 1.7-fold higher in cAMP Rel EC50 (in the presence of 1% HSA): 217 nM for the first, 365 nM for the second.

Compared with B7, B9 is 2.6-fold higher in cAMP Rel EC50 (in the presence of 1% HSA): 171 nM for the first, 438 nM for the second.

B10 and B11 are within 1.5-fold of each other in cAMP Rel EC50 (in the presence of 1% HSA): 493 nM for the first, 355 nM for the second.

B12 was tested, and the cAMP Rel EC50 (in the presence of 1% HSA) was 235 nM.

Each binder was assayed against human glucagon receptor (human) (UniProt P47871) (assay: cell-based or functional assay).
Chain of human glucagon receptor (human) (P47871 26-477): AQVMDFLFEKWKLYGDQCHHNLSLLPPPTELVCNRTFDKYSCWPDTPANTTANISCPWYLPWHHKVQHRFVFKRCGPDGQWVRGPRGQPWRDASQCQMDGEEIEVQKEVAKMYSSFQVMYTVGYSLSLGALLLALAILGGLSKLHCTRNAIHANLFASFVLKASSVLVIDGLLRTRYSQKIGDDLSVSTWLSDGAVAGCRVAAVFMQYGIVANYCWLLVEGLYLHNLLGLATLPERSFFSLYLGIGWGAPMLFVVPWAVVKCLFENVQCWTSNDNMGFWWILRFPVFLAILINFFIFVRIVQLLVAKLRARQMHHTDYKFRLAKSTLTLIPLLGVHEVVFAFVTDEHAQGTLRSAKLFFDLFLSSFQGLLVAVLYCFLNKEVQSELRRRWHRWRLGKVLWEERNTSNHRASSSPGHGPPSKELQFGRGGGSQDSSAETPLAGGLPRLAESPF

Going from B1 to B2, the Relative cAMP EC50 rises from 2.25 nM to 3.5 nM (1.6-fold).

First: B3
Second: B4
The Relative cAMP EC50 of the first is 3-fold higher: 6.98 nM for the first, 2.32 nM for the second.

B5 and B6 are within 1.5-fold of each other in Relative cAMP EC50: 2.78 nM for the first, 2.71 nM for the second.

First: B7
Second: B8
The Relative cAMP EC50 of the first is 2.1-fold higher: 8.63 nM for the first, 4.02 nM for the second.

Going from B10 to B11, the Relative cAMP EC50 falls from 11.1 nM to 6.62 nM (1.7-fold).

B12 was tested, and the Relative cAMP EC50 was 5.71 nM.

B1 and B2 are within 1.5-fold of each other in cAMP Rel EC50, nM (1% HSA): 453 nM for the first, 484 nM for the second.

In the case of B5, the cAMP Rel EC50, nM (1% HSA) is reported as 334 nM.

First: B3
Second: B4
The cAMP Rel EC50 (in the presence of 1% HSA) of the first is 4.5-fold higher: 1830 nM for the first, 409 nM for the second.

First: B7
Second: B9
The cAMP Rel EC50 (in the presence of 1% HSA) of the first is 6.6-fold higher: 1600 nM for the first, 241 nM for the second.

B10 and B11 are within 1.5-fold of each other in cAMP Rel EC50 (in the presence of 1% HSA): 1350 nM for the first, 963 nM for the second.

Binder B12 has a cAMP Rel EC50 (in the presence of 1% HSA) of 625 nM.

Each binder was assayed against T1, human GIP receptor (human) (UniProt P48546) (assay: cell-based or functional assay).
T1 sequence (looked up): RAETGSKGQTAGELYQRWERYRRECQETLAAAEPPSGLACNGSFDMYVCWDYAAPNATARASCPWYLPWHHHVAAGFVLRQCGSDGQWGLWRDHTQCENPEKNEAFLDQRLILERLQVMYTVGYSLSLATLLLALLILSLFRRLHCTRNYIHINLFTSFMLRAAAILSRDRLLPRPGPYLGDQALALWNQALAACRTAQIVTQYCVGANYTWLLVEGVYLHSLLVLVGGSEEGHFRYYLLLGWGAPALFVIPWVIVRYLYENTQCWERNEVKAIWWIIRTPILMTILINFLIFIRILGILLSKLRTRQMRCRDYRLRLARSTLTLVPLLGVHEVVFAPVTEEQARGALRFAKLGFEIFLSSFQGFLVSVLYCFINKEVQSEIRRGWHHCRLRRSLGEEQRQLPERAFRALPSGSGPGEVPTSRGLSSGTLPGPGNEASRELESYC

B1 and B2 are within 1.5-fold of each other in Relative cAMP EC50: 0.0884 nM for the first, 0.0916 nM for the second.

Compared with B3, B4 is 2.5-fold lower in Relative cAMP EC50: 0.163 nM for the first, 0.0652 nM for the second.

B5 and B6 are within 1.5-fold of each other in Relative cAMP EC50: 0.0909 nM for the first, 0.0748 nM for the second.

B7 and B8 are within 1.5-fold of each other in Relative cAMP EC50: 0.105 nM for the first, 0.0779 nM for the second.

First: B10
Second: B11
The Relative cAMP EC50 of the first is 3-fold higher: 0.35 nM for the first, 0.115 nM for the second.

Binder B12 has a Relative cAMP EC50 of 0.176 nM.

Going from B1 to B2, the cAMP Rel EC50, nM (1% HSA) falls from 28.1 nM to 5.94 nM (4.7-fold).

In the case of B5, the cAMP Rel EC50, nM (1% HSA) is reported as 8.78 nM.

First: B3
Second: B4
The cAMP Rel EC50 (in the presence of 1% HSA) of the first is 2.7-fold higher: 22.1 nM for the first, 8.22 nM for the second.

B7 and B9 are within 1.5-fold of each other in cAMP Rel EC50 (in the presence of 1% HSA): 15.6 nM for the first, 10.6 nM for the second.

First: B10
Second: B11
The cAMP Rel EC50 (in the presence of 1% HSA) of the first is 2.6-fold higher: 70.1 nM for the first, 26.6 nM for the second.

B12 showed a cAMP Rel EC50 (in the presence of 1% HSA) of 17.4 nM.

The binders below were run against human GLP1-R (SNAP-GLP-1R expressed in HEK293 cells) (human) (UniProt P43220) (assay: cell-based or functional assay).
Chain of human GLP1-R (SNAP-GLP-1R expressed in HEK293 cells) (human) (P43220 24-463): as the sequence (P43220 24-463) above

Binder B10 has a GLP1R Internalization EC50 of 129 nM.

B10 showed an Internalization % TOP of 57%.

These binders were tested against human GLP-1R (SNAP-GLP-1R expressed in HEK293 cells) (human) (UniProt P43220) (assay: cell-based or functional assay).
Chain of human GLP-1R (SNAP-GLP-1R expressed in HEK293 cells) (human) (P43220 24-463): as above

Compared with B1, B2 is 2.3-fold higher in GLP1R Internalization EC50: 24.8 nM for the first, 56 nM for the second.

Compared with B3, B4 is 2.1-fold higher in GLP1R Internalization EC50: 28.7 nM for the first, 59.9 nM for the second.

First: B5
Second: B6
The GLP1R Internalization EC50 of the first is 2-fold lower: 32.1 nM for the first, 64.4 nM for the second.

Going from B7 to B8, the GLP1R Internalization EC50 falls from 39.4 nM to 23.9 nM (1.6-fold).

B9 and B11 are within 1.5-fold of each other in GLP1R Internalization EC50: 67.4 nM for the first, 81.6 nM for the second.

For B12, the GLP1R Internalization EC50 was 87.8 nM.

Going from B1 to B2, the Internalization % TOP falls from 41.8% to 38.2%.

Compared with B3, B4 is higher in Internalization % TOP: 71.9% for the first, 73.6% for the second.

Going from B5 to B6, the Internalization % TOP falls from 38.2% to 37.6%.

Compared with B7, B8 is higher in Internalization % TOP: 74.9% for the first, 77.1% for the second.

Compared with B9, B11 is higher in Internalization % TOP: 39.5% for the first, 55.2% for the second.

B12 gave an Internalization % TOP of 43.5%.
